These results are taken from PMC7509555, “An In Vitro Study for Evaluating Permeability and Metabolism of Kurarinone” (Evidence-based Complementary and Alternative Medicine : eCAM, 2020).

Common to all, as to format: in vitro ADME, human
In one data set the test system is HLMs. Briefly: Chemical inhibition study of kurarinone metabolism (P1 formation) in HLMs. The following applies: kurarinone 20 μM in HLMs.
Substrate in data set [1]: C=C(C)C(CC=C(C)C)Cc1c(O)cc(OC)c2c1O[C@H](c1ccc(O)cc1O)CC2=O
Briefly: Enzyme kinetics of P1 formation from kurarinone in recombinant CYP2D6. The note with it: other: recombinant CYP2D6; kurarinone 1–200 μM; 37.0 °C. The procedure:
(§1) Samples were prepared in a total volume of 200 μL, containing 0.3 mg/mL protein in human liver microsomes or 15 nM protein in recombinant human supersomes, probe substrates or 50 μM kurarinone, 10 mM MgCl2, 10 mM glucose-6-phosphate, and 1 unit/mL of glucose-6-phosphate dehydrogenase. The reactions were activated by adding NADPH following preincubation at 37°C for 5 min. The reactions were maintained at 37°C for 1 h and terminated by adding 200 μL ice-cold acetonitrile. The supernatant (10 μL) collected from the samples that were centrifuged (20,000 g, 20 min, 4°C) was injected into the HPLC system for analysis. Control incubations devoid of NADPH or kurarinone were performed parallelly to ensure that the produced metabolites were NADPH- or kurarinone-dependent.
(§2) Various concentrations of kurarinone (1–200 μM) were incubated with RLMs, MLMs, PLMs, RAMs, CYP1A2, and CYP2D6 to estimate kinetic parameters. The rest of the other conditions remained the same as described in Section 2.3. […] The apparent Km and Vmax values were calculated from nonlinear regression analysis of experimental data according to the Michaelis–Menten equation, and the results were represented graphically by Eadie–Hofstee plots. All incubations were carried out as triplicate independent experiments, and kinetic constants were recorded as mean ± SD.

Substrate in data set [2]: C=C(C)C(CC=C(C)C)Cc1c(O)cc(OC)c2c1O[C@H](c1ccc(O)cc1O)CC2=O
Briefly: Enzyme kinetics of P1 formation from kurarinone in recombinant CYP1A2. The note with it: other: recombinant CYP1A2; kurarinone 1–200 μM; 37.0 °C. The procedure:
as §1, §2

With `Cc1nc2c([nH]1)c(=O)n(C)c(=O)n2Cc1ccco1` [furafylline], the “effect of selective CYP inhibitor on formation of P1 from kurarinone” value in the data set on HLMs is on record as “remarkably inhibited”.

B1: CYP2D6 (Homo sapiens) (protein)
chain: MGLEALVPLAVIVAIFLLLVDLMHRRQRWAARYPPGPLPLPGLGNLLHVDFQNTPYCFDQLRRRFGDVFSLQLAWTPVVVLNGLAAVREALVTHGEDTADRPPVPITQILGFGPRSQGVFLARYGPAWREQRRFSVSTLRNLGLGKKSLEQWVTEEAACLCAAFANHSGRPFRPNGLLDKAVSNVIASLTCGRRFEYDDPRFLRLLDLAQEGLKEESGFLREVLNAVPVLLHIPALAGKVLRFQKAFLTQLDELLTEHRMTWDPAQPPRDLTEAFLAEMEKAKGNPESSFNDENLRIVVADLFSAGMVTTSTTLAWGLLLMILHPDVQRRVQQEIDDVIGQVRRPEMGDQAHMPYTTAVIHEVQRFGDIVPLGVTHMTSRDIEVQGFRIPKGTTLITNLSSVLKDEAVWEKPFRFHPEHFLDAQGHFVKPEAFLPFSAGRRACLGEPLARMELFLFFTSLLQHFSFSVPTGQPRPSHHGVFAFLVSPSPYELCAVPR
notes: purchased BD Gentest Corp. (Woburn, MA, USA)
With B1, in data set [1], the Km is 13.76 ± 3.09 µM and the kcat is recorded as 2.78 ± 0.36 μmol·min^−1·nmol^−1 CYP.

B2: CYP1A2 (Homo sapiens) (protein)
chain: MALSQSVPFSATELLLASAIFCLVFWVLKGLRPRVPKGLKSPPEPWGWPLLGHVLTLGKNPHLALSRMSQRYGDVLQIRIGSTPVLVLSRLDTIRQALVRQGDDFKGRPDLYTSTLITDGQSLTFSTDSGPVWAARRRLAQNALNTFSIASDPASSSSCYLEEHVSKEAKALISRLQELMAGPGHFDPYNQVVVSVANVIGAMCFGQHFPESSDEMLSLVKNTHEFVETASSGNPLDFFPILRYLPNPALQRFKAFNQRFLWFLQKTVQEHYQDFDKNSVRDITGALFKHSKKGPRASGNLIPQEKIVNLVNDIFGAGFDTVTTAISWSLMYLVTKPEIQRKIQKELDTVIGRERRPRLSDRPQLPYLEAFILETFRHSSFLPFTIPHSTTRDTTLNGFYIPKKCCVFVNQWQVNHDPELWEDPSEFRPERFLTADGTAINKPLSEKMMLFGMGKRRCIGEVLAKWEIFLFLAILLQQLEFSVPPGVKVDLTPIYGLTMKHARCEHVQARLRFSIN
notes: as for B1
Regarding B2, in data set [2], the Km is 9.45 ± 2.11 µM and the kcat is recorded as 2.45 ± 0.25 μmol·min^−1·nmol^−1 CYP.
